Measured values reported in publication PMC8896794 (Science Advances, 2022).

Tests used:
porcine TSHR = biological target: T1, porcine TSHR (Sus scrofa, UniProt Q8SPP9); assay: flow cytometry on cells; HEK293T cells transfected with pTSHR and GFP, mixed with PBS or purified mouse serum IgGs, washed, stained with M22 mAb, then APC-conjugated anti-human IgG
T1 construct: thyroid-stimulating hormone receptor, porcine, cDNA NM_214297.1; also called pTSHR; source: HEK293T, transfected (with GFP), on cells

[1] = biological target: T2, full-length human TSHR complexed with HLA-DP5 (HLA-DPA1*02:02/HLA-DPB1*05:01) (Homo sapiens; …, UniProt P16473;IMGT, strain); assay: flow cytometry on cells; HEK293T cells transfected with TSHR or TSHR ECD with or without HLA-DP (pME18S, with GFP), incubated with the human anti-TSHR mAb, then APC-conjugated anti-human IgG; FACSCalibur; MFI minus that of GFP-negative cells
T2 construct: thyroid-stimulating hormone receptor (TSHR), human, cDNA AY429111.1, full length; co-expressed in one cell; also called TSHR with HLA-DP5; TSHR/HLA-DP5 complex; source: HEK293T, co-transfected (pME18S), on cells; copies: + +

[2] = biological target: T3, human TSHR extracellular domain complexed with HLA-DP5 (Homo sapiens; HLA-DPA1*02:02/DPB1*05:01, UniProt P16473;IMGT, strain); assay: as above
T3 construct: human TSHR extracellular domain (ECD), residues 22 to 282; the ECD has no membrane anchor of its own and is seen on the cell surface with HLA-DP5; also called TSHR ECD with HLA-DP5; TSHR ECD/HLA-DP complex; source: HEK293T, co-transfected (pME18S), on cells; not shown: Flag, N-terminal, kept; copies: + +

[3] = biological target: T4, full-length mouse TSHR on DAP.3 cells (mTSHR alone) (Mus musculus, UniProt P47750); assay: flow cytometry on cells; DAP.3 cells stably expressing mTSHR alone or mTSHR and I-A^k stained with K1-18 mAb; DAP.3 parental cells as control
T4 construct: thyroid-stimulating hormone receptor, mouse, cDNA NM_011648.5, full length

[4] = biological target: T5, full-length mouse TSHR with I-A^k on DAP.3 cells (Mus musculus; I-Ak, UniProt P47750;P01910;P06343); assay: as above
T5 construct: thyroid-stimulating hormone receptor, mouse, cDNA NM_011648.5, full length; mouse MHC class II I-A^k alpha chain, cDNA V00832.1; mouse MHC class II I-A^k beta chain, cDNA M13538.1; co-expressed in one cell; also called mTSHR + I-A^k; mTSHR and I-A^k; copies: + +

[5] = biological target: T6, full-length human thyroid-stimulating hormone receptor, transfected alone (Homo sapiens, UniProt P16473); assay: flow cytometry on cells; HEK293T cells transfected with TSHR or TSHR ECD with or without HLA-DP (pME18S, with GFP), incubated with the human anti-TSHR mAb, then APC-conjugated anti-human IgG; FACSCalibur; MFI minus that of GFP-negative cells
T6 construct: thyroid-stimulating hormone receptor (TSHR), human, cDNA AY429111.1, full length; no MHC class II co-transfected; also called TSHR; human TSHR; source: HEK293T, transfected (pME18S), on cells

[6] = biological target: T7, full-length human TSHR cotransfected with HLA-DP4 (HLA-DPA1*01:03/HLA-DPB1*04:01) (Homo sapiens; HLA-DPA1*01:03/DPB1*04:01, UniProt P16473;IMGT, strain); assay: as above
T7 construct: thyroid-stimulating hormone receptor (TSHR), human, cDNA AY429111.1, full length; co-expressed in one cell; also called TSHR with HLA-DP4; source: HEK293T, co-transfected (pME18S), on cells; copies: + +

T5 sequence (P47750 22-764, chain 1 of 3): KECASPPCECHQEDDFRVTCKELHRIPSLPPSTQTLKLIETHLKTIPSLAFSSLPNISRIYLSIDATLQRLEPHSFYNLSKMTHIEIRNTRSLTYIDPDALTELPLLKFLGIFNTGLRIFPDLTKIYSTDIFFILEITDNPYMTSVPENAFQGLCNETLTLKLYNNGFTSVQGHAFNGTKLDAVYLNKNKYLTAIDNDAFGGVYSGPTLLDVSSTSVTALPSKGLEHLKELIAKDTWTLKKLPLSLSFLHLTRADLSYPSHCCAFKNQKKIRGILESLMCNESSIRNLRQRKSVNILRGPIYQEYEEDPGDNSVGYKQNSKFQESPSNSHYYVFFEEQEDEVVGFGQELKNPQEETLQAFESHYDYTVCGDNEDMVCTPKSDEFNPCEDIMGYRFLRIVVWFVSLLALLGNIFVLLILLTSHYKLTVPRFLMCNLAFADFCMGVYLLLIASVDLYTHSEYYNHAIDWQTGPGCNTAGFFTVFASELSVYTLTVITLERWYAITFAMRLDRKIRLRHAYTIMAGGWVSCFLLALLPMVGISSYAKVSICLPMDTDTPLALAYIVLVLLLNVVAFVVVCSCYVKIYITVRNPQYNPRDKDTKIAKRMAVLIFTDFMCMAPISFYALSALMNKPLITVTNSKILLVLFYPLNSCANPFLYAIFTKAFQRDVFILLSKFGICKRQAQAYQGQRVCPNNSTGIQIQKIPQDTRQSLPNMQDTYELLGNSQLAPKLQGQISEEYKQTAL
T5 sequence (P01910 24-256, chain 2 of 3): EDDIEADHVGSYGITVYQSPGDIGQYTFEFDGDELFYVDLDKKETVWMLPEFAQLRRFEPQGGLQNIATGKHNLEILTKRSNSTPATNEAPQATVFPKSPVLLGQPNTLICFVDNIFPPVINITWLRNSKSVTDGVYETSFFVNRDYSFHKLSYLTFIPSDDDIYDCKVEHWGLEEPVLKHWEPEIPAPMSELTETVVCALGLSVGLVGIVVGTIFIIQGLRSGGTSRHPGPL
T5 sequence (P06343 28-263, chain 3 of 3): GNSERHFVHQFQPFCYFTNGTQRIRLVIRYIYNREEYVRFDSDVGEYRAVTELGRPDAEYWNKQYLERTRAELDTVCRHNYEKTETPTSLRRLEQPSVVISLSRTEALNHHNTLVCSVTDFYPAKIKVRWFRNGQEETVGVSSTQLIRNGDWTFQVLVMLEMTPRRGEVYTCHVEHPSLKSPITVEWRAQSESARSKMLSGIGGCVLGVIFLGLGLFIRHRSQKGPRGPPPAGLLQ
T4 sequence (P47750 22-764): as the sequence (P47750 22-764, chain 1 of 3) above
T1 sequence (Q8SPP9 22-764): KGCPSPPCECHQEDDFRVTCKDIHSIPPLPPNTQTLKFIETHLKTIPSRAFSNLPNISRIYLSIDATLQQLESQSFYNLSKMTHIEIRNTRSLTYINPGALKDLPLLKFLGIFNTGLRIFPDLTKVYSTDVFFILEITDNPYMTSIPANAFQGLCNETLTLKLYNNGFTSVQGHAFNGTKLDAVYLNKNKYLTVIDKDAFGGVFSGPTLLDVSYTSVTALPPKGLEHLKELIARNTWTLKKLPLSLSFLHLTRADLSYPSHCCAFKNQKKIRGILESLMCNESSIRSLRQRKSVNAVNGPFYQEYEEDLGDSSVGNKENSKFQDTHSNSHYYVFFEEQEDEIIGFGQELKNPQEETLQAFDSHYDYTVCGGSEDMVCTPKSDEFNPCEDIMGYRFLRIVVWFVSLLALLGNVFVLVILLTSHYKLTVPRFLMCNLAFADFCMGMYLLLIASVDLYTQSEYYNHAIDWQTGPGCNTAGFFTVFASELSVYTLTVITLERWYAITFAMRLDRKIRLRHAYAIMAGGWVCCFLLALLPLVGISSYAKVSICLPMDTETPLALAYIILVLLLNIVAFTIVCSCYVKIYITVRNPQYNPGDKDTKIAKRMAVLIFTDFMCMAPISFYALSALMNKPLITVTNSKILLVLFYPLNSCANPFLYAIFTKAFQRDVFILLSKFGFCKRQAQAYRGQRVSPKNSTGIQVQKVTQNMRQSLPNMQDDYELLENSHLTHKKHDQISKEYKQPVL

binding result (porcine TSHR)	binding result [1]	binding result [2]	binding result [3]	binding result [4]	binding result [5]	binding result [6]	Binder
binds	–	–	–	–	–	–	M22 thyroid-stimulating monoclonal antibody (antibody, V domains shown, constant region of the λ chain is not described; IgG1; also called M22 mAb; source: recombinant, V regions synthesized and cloned into pME18S expression vectors) VH: QVQLVQSGAEVKKPGESLKISCRGSGYRFTSYWINWVRQLPGKGLEWMGRIDPTDSYTNYSPSFKGHVTVSADKSINTAYLQWSSLKASDTGMYYCARLEPGYSSTWSVNWGQGTLVTVSS VL: LTVLTQPPSVSGAPRQRVTISCSGNSSNIGNNAVNWYQQLPGKAPKLLIYYDDQLPSGVSDRFSGSRSGTSASLAIRGLQSEDEADYYCTSWDDSLDSQLFGGGTRLTVL
–	binds	binds	binds	binds	–	–	K1-18 monoclonal antibody, wild type (antibody, V domains shown, constant region of the λ chain is not described; IgG1; thyroid-stimulating autoantibody (TRAb) from a Graves' disease patient; also called WT K1-18; K1-18 mAb; source: recombinant, V regions synthesized and cloned into pME18S expression vectors) VH: EVQLVQSGAEVKKPGESLKISCKGSGYSFTNYWIGWVRQMPGKGLEWMGIIYPYDSDTRYSPSFEGQVTISADKSIRTAYLHWSSLKASDTAMYYCVRPRDGSYPYDAFDIWGQGTMVTVSS VL: EIVLTQSPGTLSLSPGERATLSCRASQSVSNNYLAWYQQKPGQAPRLLIYGASSRATGIPDRFSGSGSGTDFTLTISRLEPEDFAVYYCQHCGSSLRAFGQGTKVEIK
–	binds	–	–	–	no binding	no binding	germlined K1-18 monoclonal antibody (antibody, V domains shown, constant region of the λ chain is not described; IgG1; also called germlined K1-18 mAb; source: recombinant, mutated from wild-type K1-18 V regions (QuikChange), pME18S expression vectors) VH: EVQLVQSGAEVKKPGESLKISCKGSGYSFTSYWIGWVRQMPGKGLEWMGIIYPGDSDTRYSPSFEGQVTISADKSIRTAYLHWSSLKASDTAMYYCARPRDGSYPYDAFDIWGQGTMVTVSS VL: EIVLTQSPGTLSLSPGERATLSCRASQSVSSSYLAWYQQKPGQAPRLLIYGASSRATGIPDRFSGSGSGTDFTLTISRLEPEDFAVYYCQHCGSSLRAFGQGTKVEIK
